T1: DR4, endogenous, in human cancer cell lysates (human, UniProt O00220 24-468)
T1 construct: also called TRAIL receptor DR4
T1 sequence (looked up): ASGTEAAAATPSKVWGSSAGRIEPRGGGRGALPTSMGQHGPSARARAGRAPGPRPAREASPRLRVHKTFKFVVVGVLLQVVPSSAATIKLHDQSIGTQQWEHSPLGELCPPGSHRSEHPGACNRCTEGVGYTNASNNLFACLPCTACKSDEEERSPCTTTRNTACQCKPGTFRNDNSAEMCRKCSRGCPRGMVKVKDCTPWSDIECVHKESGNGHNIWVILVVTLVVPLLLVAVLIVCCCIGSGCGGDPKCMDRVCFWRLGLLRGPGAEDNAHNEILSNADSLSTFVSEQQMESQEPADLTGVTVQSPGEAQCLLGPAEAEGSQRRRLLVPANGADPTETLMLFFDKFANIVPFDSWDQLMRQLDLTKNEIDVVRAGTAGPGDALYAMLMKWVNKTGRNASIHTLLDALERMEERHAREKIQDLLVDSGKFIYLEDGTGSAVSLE

B1: SPARC (Secreted Protein, Acidic, Rich in Cysteines), His-tagged, stably expressed in MIP101 cells (MIP/SP) (other, human, UniProt P09486 18-303, looked up)
chain: APQQEALPDETEVVEETVAEVTEVSVGANPVQVEVGEFDDGAEETEEEVVAENPCQNHHCKHGKVCELDENNTPMCVCQDPTSCPAPIGEFEKVCSNDNKTFDSSCHFFATKCTLEGTKKGHKLHLDYIGPCKYIPPCLDSELTEFPLRMRDWLKNVLVTLYERDEDNNLLTEKQKLRVKKIHENEKRLEAGDHPVELLARDFEKNYNMYIFPVHWQFGQLDQHPIDGYLSHTELAPLRAPLIPMEHCTTRFFETCDLDNDKYIALDEWAGCFGIKQKDIDKDLVI
notes: Present in membrane fractions of MIP/SP cell lysates used for co-immunoprecipitation; also called osteonectin; His-tagged SPARC protein; not shown: His tag
B2: FADD, endogenous, in human cancer cell lysates (other, UniProt Q13158 1-208, looked up)
chain: MDPFLVLLHSVSSSLSSSELTELKFLCLGRVGKRKLERVQSGLDLFSMLLEQNDLEPGHTELLRELLASLRRHDLLRRVDDFEAGAAAGAAPGEEDLCAAFNVICDNVGKDWRRLARQLKVSDTKIDSIEDRYPRNLTERVRESLRIWKNTEKENATVAHLVGALRSCQMNLVADLVQEVQQARDLQNRSGAMSPMSWNSDASTSEAS
notes: also called Fas-associated death domain; p-FADD

Key:
[1] = target: T1, DR4, endogenous, in human cancer cell …; test: co-immunoprecipitation from subcellular fractions
Description: (§1) Cells were separated into nuclear, cytosolic, and membrane fractions using ProteoExtract Subcellular Proteome Extraction Kit (EMD Biosciences Inc.). […] Protein:Antibody mixture was then incubated with 30 μL of Protein A: Protein G (Sigma) (1:1) beads for 4 hours (4° C.).

[2] = target: B1; test: co-immunoprecipitation from subcellular fractions
Description: as §1

Row | Binder | binding result [1] | binding result [2]
1 | B1 | no binding | –
2 | B2 | – | no binding
